US20230068487A1

Target: commercial recombinant neutrophil elastase (NE) (UniProt P08246)
Assay: cell-based or functional assay

UniProt P08246, sequence (P08246 30-247 limits assumed): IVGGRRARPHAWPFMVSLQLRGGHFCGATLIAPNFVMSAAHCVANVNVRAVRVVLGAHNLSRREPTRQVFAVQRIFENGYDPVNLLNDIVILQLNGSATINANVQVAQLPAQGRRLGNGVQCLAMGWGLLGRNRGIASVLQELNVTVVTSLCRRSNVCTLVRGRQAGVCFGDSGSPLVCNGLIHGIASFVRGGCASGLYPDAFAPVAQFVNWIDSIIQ

## wild type recombinant human alpha-1-antitrypsin (WT-rhAAT) (from UniProt P01009 25-418)
  reduction of NE activity (elastase inhibitory activity, chromogenic substrate) at 0.65 µM WT-rhAAT: 75%
